In the supplement of paper PMC9170038:

Tested on: K4 kissing-loop RNA reporter
Assay: apparent KD of K4 kissing-loop reporter; higher = weaker reporter binding
Settings: Eterna round: R107
Method: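 RNA-MaP round R107: designed RNA switches with theophylline, tryptophan, arginine or FMN aptamers are transcribed on-chip within common flanks. They are titrated with a labelled K4 kissing-loop RNA reporter in RNA-MaP buffer (100 mM Tris pH 7.5, 80 mM KCl, 4 mM MgCl2), without ligand or with the indicated ligand. Median apparent KD per design.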

[1] = input ligand: theophylline 20 uM
[2] = input ligand: tryptophan 2.4 mM
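Note: bound reporter read as fluorescence of individual clusters on recovered sequencing chips by microscopy, with normalized cluster intensities fitted with a binding model.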

Sequence	apparent KD of K4 kissing-loop reporter (input ligand: FMN 200 uM)	apparent KD of K4 kissing-loop reporter (input ligand: arginine 13.2 mM)	apparent KD of K4 kissing-loop reporter (input ligand: none)	apparent KD of K4 kissing-loop reporter [1]	apparent KD of K4 kissing-loop reporter [2]
AGAUUCGACACGGCCGCCACUCGUGGAUCUUGGUUGAGAGAUGAAAUAGAGUGAUGUUCUAAUACGAGGACCGGGUGUUGAGUCU [KL-SSTryp-B23]	221 nM	165 nM	200 nM	177 nM	174 nM
AGAUUCGACACGGCCGCCACUUCCAGUGGUCGGUGUCAUGGUGCACAUGAGUGAUGUUCAUGUGGAAGGACCGGGUGUUGAGUCU [KL-XTryp-B3 #analogue]	111 nM	91.4 nM	103 nM	108 nM	165 nM
AGCCGAAAGGCGAGUGCUGUCACUCCGGAAGGAGCGCAGGAAACUGCAGGUAGGUCGCCGGAGUGAUGUUCCGGUGCAGCACUCA [Omei KL Arginine A Exc B v6]	614 nM	317 nM	1120 nM	561 nM	800 nM
AGCGGCCAGUCGGCCGCCACUCCAAGCAGUGAUGUUGCUAAGUUUCUACAAGAGUGAUGUUCUUAGAGGACCGGGACUGAUGUGA [Exclusion Tryptophan B Gf 7]	192 nM	240 nM	211 nM	241 nM	157 nM
AGCUCAGAGUGACUCGAUAAGAGUCACAAACGAGGACCGGUACGGCCGCCACUCGAAAUAAAGAGAGUGAUGUUCUCGCUGAGCA [FiskerMod 9 - Jieux - Same State Tryptophan A]	200 nM	211 nM	223 nM	239 nM	795 nM
AGCUGUGGCAGAAGGAGCGGCAGUUAUUCUGAUAGUACUCUGAGUGAUGUUCAGAACGACUGUCAGGUAGGUCGCUGUCACAGCU [#02 K4 Arginine B Exclusion]	252 nM	252 nM	234 nM	206 nM	218 nM
AGCUUGGGUUCGGCCGCCACUCCACCCUUAGAAGUGAUGUUUCUCAUGCAUACGCGUCGUCAGAUGAGGACCGGGAAUGUAGUUG [theeternabot_exclusion_KL_Trp_B_24]	209 nM	444 nM	354 nM	351 nM	214 nM
AGGAGCGUGCGAUGGAAAUCGCACGCUCCUCGAGGACCGGUACGGCCGCCACUCGCUCGCGCCGAGUGAUGUUCGGCCGGCGAAG [#2 Same State - Tryptophan A Attempt #16 (HarryS)]	85.6 nM	128 nM	85.7 nM	58.6 nM	82.8 nM
AGGAUCCGUCGACAAAAGUCGACAUAAUCCAAGGAUAUGACGAAAGUCAGAAGGUGGACAUAAGUCCAGUGAUGUUGGAGGAUCC [FmnA 16 #SwitchBubble #K4Late]	766 nM	283 nM	427 nM	557 nM	351 nM
AGGAUGUAGUGAUGUUAUAUAAGAAGUAAACGAGGACCGGUACGGCCGCCACUCGAAGCGGCUACUAGCGCGUUGCGAGGUGCGC [ExTryptoA.Cc]	391 nM	451 nM	372 nM	370 nM	286 nM
AGGCACGAGCAAGGAUAUCGAGUGGAGUGAUGUUCUGCCGACCCAGGACCGCAAGGUCCUGGGUCGCGAGAAGGUGCUCGUGCCU [#2 Same State - FMN A Attempt #5 (HarryS)]	254 nM	642 nM	730 nM	676 nM	685 nM
AGGGCGGAGUGAUGUUCCGGCUCCCGAUUUAAGGAUAUUGCGUAAACAAGAAGGUAAAGGCGCAGCAAUAUUAUUUCGUAAGGCG [theeternabot_exclusion_KL_FMN_A_23]	85.5 nM	103 nM	93.7 nM	111 nM	79.1 nM
AGGUACAAAAGUACCGCUAGAUCCACGGAAGGAGCGCCCGAAAGGGCAGGUAGGUCGCCGGGCAGUGAUGUUGCCGGAUCUAGCA [Omei KL Arginine A SS A v6]	162 nM	163 nM	156 nM	181 nM	139 nM
AGGUCUGCACGAAGGAGCGCCCUGACAGGUUGCUGCCGUGGGCAGUGAUGUUGCUCAGUCCGGCAGGUAGGUCGCGUGCAGACCU	136 nM	109 nM	123 nM	97.5 nM	161 nM
AGUACAAUGGCGGCCGCCACUCAAUGGGCGACCGAAAGGUCGCAUCACUCAGUGAUGUUGAGUGAGAGGACCGGGCCUUUGUACA [Omei KL Tryp B SS B v8]	733 nM	497 nM	611 nM	595 nM	270 nM
AGUAGUUGGACGGCCGCCACUGGAACAGCUUUGCCAAAGGCAGAGCACUAGAGUGAUGUUCUAGCUAGGACCGGGUCCAACUACA [whbob_SS_Tryp_B_t16]	338 nM	89.7 nM	440 nM	249 nM	882 nM

Sequence	apparent KD of K4 kissing-loop reporter (input ligand: FMN 200 uM)	apparent KD of K4 kissing-loop reporter (input ligand: arginine 13.2 mM)	apparent KD of K4 kissing-loop reporter (input ligand: none)	apparent KD of K4 kissing-loop reporter [1]	apparent KD of K4 kissing-loop reporter [2]
AGUAUGUAAUAUGGCAUAUUUAGAACUGAAGGAGCGCCGAAUAAGGCAGGUAGGUCGCGGAAUCAUGAGUGAUGUUCAUGACUAU [KL-SSArg-A26]	80.6 nM	116 nM	123 nM	126 nM	91.1 nM
AGUCCACUCUAAAGAGUGGACCUAAGGGAUACCAGUGAUGUUGGUCACCCUUGGCAGCCCACUGUCAUCGAUAAAGAUGGCAGCA	119 nM	106 nM	113 nM	117 nM	117 nM
AGUGAACGAGCGGCCGCCACUAAAUGAGUGAUGUUCGUGAGUAGUGCUGUUGUCAUGAUUGUUUUUAGGACCGGGUUCGAUGUUG [popplmullin]	719 nM	735 nM	1270 nM	963 nM	719 nM
AGUGAGUGAUGUUCACUGUACGUGUCUGAAGGAGCGACAUCGAUGUCAGGUAGGUCGCAGACAUGUCAUCUAUGGUGCGUGACCA [Arg A SS t10]	124 nM	116 nM	129 nM	163 nM	118 nM
AGUGAUGUAUGGCGGUUUGUCACUUAUAAUCAGGAUAUAUAAACAAAUAGAAGGGAUGGCGGAGUGAUGUUCCGCCGGCCGCCAU [FMN A Exl V5]	170 nM	136 nM	167 nM	172 nM	149 nM
AGUGCACUGUCAGGAUAUAUACAGUGAUGUUGUGUAUGUCAGCAAGUCAAAGACUUGCUUUUCUGUGUAGAAGGGACUGUGUACA [Omei KL FMN B Exc A v2]	387 nM	134 nM	154 nM	141 nM	148 nM
AGUGUGCAAAAGCACACUCAGUACAAGGACAAGGAUAUCUACUAAUAGAGAAGGUGUCCUUUCCUUAGUGAUGUUAAGGAGCUGA [Omei KL FMN A SS D v2]	177 nM	295 nM	339 nM	347 nM	368 nM
AUACAGCGACGCGCUAGUGAUGUUAGCGAAGGAGCGACUCAUGAGUCAGGUAGGUCGCGCUAACGUGGUUACGAGAGUAACCAGU [Arg A Ex t1a]	93.3 nM	86.8 nM	93.6 nM	80.1 nM	89.4 nM
AUCAGUUCAGCUGAUACCAGUCAGGAGUGAUGUUCCUGCUCGCGUCAGCCGCGUCGACAAGACCCUUGGCAGCAGCUCUAAGUGU [theeternabot_exclusion_KL_Theo_B_40]	114 nM	98.1 nM	110 nM	103 nM	110 nM
AUCCAUAGUGAUGUUGUGAGCGGAGGCACCAAGGAUAUUGCCAGCCCAAGAAGGUGGGUCCCACACACCAGGCAUACAAGUCCGG [theeternabot_exclusion_KL_FMN_A_43]	1040 nM	845 nM	1160 nM	944 nM	837 nM
AUCGUUGUCUGAGGAUAUCGGUUAUCUGUAGUGAUGUUACAGUAUAUUGAUAUUAAAGUUUCUAUUCGAGAAGGCAGACUACGUA [JR_Nu_ExcFMNB_Sub022]	71.4 nM	65.4 nM	72.1 nM	58.9 nM	71.9 nM
AUCGUUGUCUGAGGAUAUCGGUUAUCUGUAGUGAUGUUACAGUAUAUUGAUAUUAUAGUUUCUUUUCGAGAAGGCAGACUACGUA [JR_Nu_ExcFMNB_Sub021]	74.1 nM	61.3 nM	68.9 nM	65.4 nM	66.4 nM
AUGAGGAGCAGUGAUCCUAUUCCAUGGGAAGGAGCGUAGGAUACUACAGGUAGGUCGCCCAGUGAUGUUGGGCGCGUGCUCUUGG [Zaqua]	159 nM	133 nM	133 nM	178 nM	146 nM
AUGCGACGUGCGGCCGCCACUCGGAUGCGAGUGAUGUUCGCGGGACGGACGCAAGUCCGUCAUUCGAGGACCGGGCAUCGGUGUA [#2 Same State - Tryptophan B Attempt #2 (HarryS)]	555 nM	462 nM	636 nM	512 nM	139 nM
AUGCGCAGCCUGCUUACGUAUGAGCCGGAAGGAGCGGCAGAAUUGCCAGGUAGGUCGCCGGCCCAGUGAUGUUGGGAUGGUGUGG [Atusqubela]	279 nM	167 nM	343 nM	419 nM	264 nM
AUGCUUUUAAUAACACUAUAUACAGCUGAAGGAGCGACAAUAAAGUCAGGUAGGUCGCAGAAUAGAUGAGUGAUGUUCAUUUUUA [#05 K4 Arginine A Exclusion]	92.8 nM	178 nM	118 nM	166 nM	76.9 nM
